# Test results taken from publication PMC2646761.
# Substrate: CC#CC(=O)C(=O)O
# Experiment: purified protein
# Assay type: biochemical, Corynebacterium glutamicum
# Settings: hydration of 2-oxo-3-pentynoate; typical value of the enzyme preparations used
protein,measurement,value
Cg10062 (Corynebacterium glutamicum ATCC 13032) (protein) PTYTCWSQRIRISREAKQRIAEAITDAHHELAHAPKYLVQVIFNEVEPDSYFIAAQSASENHIWVQATIRSGRTEKQKEELLLRLTQEIALILGIPNEEVWVYITEIPGSNMTEYGRLLMEPGEEEKWFNSLPEGLRERLTELEGSSE,Km,4.2 ± 0.3 mM
same,kcat,0.16 ± 0.01 s⁻¹
